Consider two molecules from article PMC8233713, “Direct Interaction of Polar Scaffolding Protein Wag31 with Nucleoid-Associated Protein Rv3852 Regulates Its Polar Localization” (Cells, 2021).

In experiment [1] the target is T1, Wag31 (recombinant, from Wag31-pet28a) (Mycobacterium tuberculosis, UniProt P9WMU1 1-260).
T1 sequence: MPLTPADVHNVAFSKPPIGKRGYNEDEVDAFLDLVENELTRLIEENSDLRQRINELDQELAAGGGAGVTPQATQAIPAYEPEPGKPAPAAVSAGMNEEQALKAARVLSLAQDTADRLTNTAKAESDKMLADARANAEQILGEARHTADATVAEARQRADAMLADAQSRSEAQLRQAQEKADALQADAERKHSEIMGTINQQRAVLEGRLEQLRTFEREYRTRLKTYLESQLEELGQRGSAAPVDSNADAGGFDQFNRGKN
Nature of the experiment: co-IP. Particulars: both partners purified.

The target in experiment [2] is T1, Wag31 (recombinant, from Wag31-pet28a). Kind of experiment: pull-down. The following applies: both partners purified.

B1: 6X His-tagged Rv3852 protein (natural protein)
chain: MPDPQDRPDSEPSDASTPPAKKLPAKKAAKKAPARKTPAKKAPAKKTPAKGAKSAPPKPAEAPVSLQQRIETNGQLAAAAKDAAAQAKSTVEGANDALARNASVPAPSHSPVPLIVAVTLSLLALLLIRQLRRR
notes: also called hexa-histidine tagged Rv3852
B1: the binding result in experiment [1] is on record as “binds”.

B2: Rv3852-MBP (natural protein)
chain: MPDPQDRPDSEPSDASTPPAKKLPAKKAAKKAPARKTPAKKAPAKKTPAKGAKSAPPKPAEAPVSLQQRIETNGQLAAAAKDAAAQAKSTVEGANDALARNASVPAPSHSPVPLIVAVTLSLLALLLIRQLRRR
Regarding B2, the binding result in experiment [2] is on record as “binds”.
